These are literature values, as cited in article PMC5852440.

In general, Kd refers to the concentration at which binding is half-saturated.

In the series the target is EphB4 (Homo sapiens) (UniProt P54760).
Sequence of UniProt P54760 (P54760 16-539): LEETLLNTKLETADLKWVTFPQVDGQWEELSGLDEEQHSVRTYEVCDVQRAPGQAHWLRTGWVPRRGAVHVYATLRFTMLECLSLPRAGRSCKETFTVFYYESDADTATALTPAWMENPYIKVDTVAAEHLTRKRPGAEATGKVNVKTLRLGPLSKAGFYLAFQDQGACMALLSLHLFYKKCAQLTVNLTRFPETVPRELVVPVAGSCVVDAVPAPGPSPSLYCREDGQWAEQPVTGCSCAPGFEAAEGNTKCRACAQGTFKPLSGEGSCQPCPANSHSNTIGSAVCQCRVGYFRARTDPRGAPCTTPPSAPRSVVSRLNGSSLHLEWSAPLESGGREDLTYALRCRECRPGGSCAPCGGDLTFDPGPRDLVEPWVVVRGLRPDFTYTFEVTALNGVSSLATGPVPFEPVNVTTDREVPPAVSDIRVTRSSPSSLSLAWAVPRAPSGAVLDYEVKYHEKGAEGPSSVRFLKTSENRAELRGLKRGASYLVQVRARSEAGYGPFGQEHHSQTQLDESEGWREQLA

In the case of Epo (from UniProt P01588), the Kd is 880 nM.
